This is an account of results in US12383572B2, “Administration of an anti-activin-a compound to a subject” (AMGEN INC., priority 2013, dated 2025).

Test [1] has as its system TOV-21G, BAEC, MRC-5, CCD-Lu, U937 and THP-1 cultures. As to the kind of experiment: Real-time RT-PCR of VEGF, Ang-1 and βA in cell cultures treated with recombinant activin-A. To be noted: BAEC. The format is cell-based. The text has this: ID NO: 291), [NT] ID NO: 292), and TaqMan probe [NT] ID NO: 293).
(In general: In qPCR the cycle at which signal appears reflects the starting amount.)

For test [2], the system named is TOV-21G, MRC-5, CCD-Lu and THP-1 cell cultures. Kind of test: VEGF and Ang-1 ELISA of cell culture medium after recombinant activin-A. It counts as cell-based, human. To be noted: TOV21G, MRC-5, CCD-Lu and TPH-1 cells treated with activin-A. On the procedure: The serum VEGF levels in inh-KO mice were measured by using immunoassay kit (R & D Systems), and the levels of human VEGF and Ang-1 in cell line culture medium were quantified using ELISA kits purchased from Invitrogen (VEGF) and R & D Systems (Ang-1), by following the manufacturers' recommended protocols.
A general note: ELISA stands for enzyme-linked immunosorbent assay.

B1: recombinant activin-A: Recombinant activin-A was produced using mammalian expression system (Amgen Inc) (protein, UniProt P08476 311-426, looked up)
Inhibin beta A chain: GLECDGKVNICCKKQFFVSFKDIGWNDWIIAPSGYHANYCEGECPSHIAGTSGSSLSFHSTVINHYRMRGHSPFANLKSCCVPTKLRPMSMLYYDDGQNIIKKDIQNMIVEECGCS
B1: the “Ang-1 mRNA (real-time PCR)” value in test [1] (MRC-5 and CCD-Lu cultures treated with recombinant activin-A) was “also of Ang-1 mRNA in BAEC, MRC-5 and CCD-Lu cultures”. Besides, the “endogenous activin-A (βA) mRNA expression” value in test [1] (TOV21G, MRC-5, CCD-Lu, U937 and THP-1 cultures, recombinant activin-A added) is “markedly upregulated βA expression in all these cells”. Moreover, the “VEGF transcripts (real-time PCR)” value in test [1] (TOV-21G, MRC-5 or CCD-Lu, U937 cultures treated with recombinant activin-A) is given as “marked increases in the levels of VEGF transcripts in all these cultures”. The “release of VEGF into the culture medium (ELISA)” value in test [2] was “increased the release of VEGF”.
